One data set has as its system CCCCC1CCCC(=O)O1. Briefly: purified protein. The following applies: pH 8.3.
For the next data set, the system named is CCCCCC1CCCC(=O)O1. Kind of data set: purified protein. The following applies: pH 8.3.

Take “Dr0930 (Deinococcus radiodurans R1 = ATCC 13939 = DSM 20539)”: in the data set on CCCCC1CCCC(=O)O1, the Km (in general, the concentration of substrate that gives half-maximal velocity) was found to be 100 ± 20 µM and the kcat/Km (as a rule, the second-order rate constant that governs catalysis at low substrate concentration) amounted to 420000 ± 70000 M⁻¹ s⁻¹. Also, in the data set with CCCCCC1CCCC(=O)O1, the Km came to 80 ± 10 µM and the kcat/Km turned out to be 200000 ± 20000 M⁻¹ s⁻¹.

For “Dr0930 (Deinococcus radiodurans R1 = ATCC 13939 = DSM 20539; Y28F)”, in the data set on CCCCC1CCCC(=O)O1, the Michaelis-Menten constant (Km) was determined as 100 ± 20 µM and the kcat/Km was 270000 ± 40000 M⁻¹ s⁻¹.

Take “Dr0930 (Deinococcus radiodurans R1 = ATCC 13939 = DSM 20539; Y97F)”: in the data set with CCCCC1CCCC(=O)O1, the Michaelis-Menten constant (Km) was 200 ± 20 µM and the kcat/Km came to 1700 ± 100 M⁻¹ s⁻¹.

Regarding “Dr0930 (Deinococcus radiodurans R1 = ATCC 13939 = DSM 20539; Y98F)”, in the data set with CCCCC1CCCC(=O)O1, the Km stood at 400 ± 20 µM and the kcat/Km is 18000 ± 2000 M⁻¹ s⁻¹.

The values above are taken from paper PMC3176505 (Biochemistry, 2009).
